This note sets out measurements from US20090305254, “Method and Apparatus for Assaying Test Substance in Sample” (TECHNO MEDICA CO., LTD., published 2009).

Series [1] has as its target T1, bovine serum albumin (BSA) (Bos taurus, UniProt P02769 P02769:25-607). The series can be described thus: SPR; control; PBS with 1 mM MgCl2 pH 7.4; also no response current at 1 uM in electrochemical assay. To be noted: label: biotin (SPR); hairpin. The procedure:
Biotinylated CaAp-1 was immobilized on an SPR chip (SA chip), and variations in SPR signal when IgE solutions of various concentrations (100 μL) were fed were observed. Upon measurement of interaction, an Mg2+-containing PBS buffer (138 mM NaCl, 2.7 mM KCl, 8.1 mM NaHPO₄, 1.1 mM KHPO₄, 1 mM MgCl₂, pH 7.4) was used, and the flow rate was set at 20 μL/min. Observed as a control were variations in SPR signal when bovine serum albumin (BSA) solutions of various concentrations were fed.
To beads (20 μL; solid amount: 10 μL) with “NEUTRAVIDIN” (trade name) immobilized as a biotin-binding substance thereon, the biotin-modified 14-mer capture oligonucleotide (0.5 nmol) was added. With 100 mM phosphate buffer and 150 mM […] (pH7.2), the total volume was adjusted to 500 μL. The resultant mixture was stirred overnight at 4° C. to immobilize the 14-mer capture oligonucleotide on the beads. […] Using the supernatant (20 μL) and 10 mM MOPS (pH 7.2), which contained CaCl₂ (1 mM) and PQQ (1 μM), as a reaction solution (total volume: 4 mL), a gold electrode as a working electrode and a platinum electrode as an opposing electrode, the response current was measured at an impression potential of +100 mV vs Ag/AgCl while adding glucose to a final concentration of 60 mM. […]
(In general: In SPR one partner is held on a chip, and binding of the other changes the refractive index at the surface.)

Another series concerns the target thrombin (UniProt P00734;P00734 P00734:328-363,P00734:364-622). The series is described as follows: EMSA; 10 mM MOPS pH 7.4, room temp; thrombin-bound aptamer does not hybridize FITC 15-mer complementary strand; PQQGDH-labeled aptamer bead assay detection limit 100. For orientation: Mobility shift assays separate free from complexed probe on a gel.
Series [2] has as its target T1, bovine serum albumin (BSA). The series can be described thus: control; PQQGDH-labeled aptamer, electrochemical bead capture assay; no BSA-concentration-dependent current. To be noted: G4 with inserted hairpin (15-nt loop 27-41, 5-bp stem). Here is the method: Each sample solution (100 μL), which contained thrombin (0 to 10 μg/mL, […]) and the PQQGDH-labeled aptamer (0.1 U, approx. 10 μmol) prepared above in Procedure (2), was added to the DNA-immobilized carrier (10 μL) obtained above in Procedure (1), and the resulting mixture was stirred at room temperature for 15 minutes and then centrifuged. Using the thus-obtained supernatant (20 μL) and 10 mM MOPS (pH 7.2, 4 mL in total), which contained mPMS (1-methoxyphenazine methosulphate) (6 mM), PQQ (1 μM) and CaCl₂ (1 mM), as a reaction solution, a gold electrode as a working electrode and a platinum electrode as an opposing electrode, the response current was measured at an impression potential of +100 mV vs Ag/AgCl while adding glucose to a final concentration of 60 mM. The measurement was conducted at 25° C. With respect to each of sample solutions containing thrombin at 50 to 1,000 μg/mL ([…]), detection was similarly conduced by doubling the amounts of the DNA-immobilized carrier and ap-GDH to be employed.
A thrombin-concentration-dependent increase in current value was observed up to the level of 10 μg/mL. When BSA was used as a control in place of thrombin, the resultant current value was low, no BSA-concentration-dependent increase in current value was observed (FIG. 4(b)), and the detection limit was 100 ng/mL (2.7 nM) (FIG. 4(a)). […]

T1 sequence (P02769 25-607, one chain of several): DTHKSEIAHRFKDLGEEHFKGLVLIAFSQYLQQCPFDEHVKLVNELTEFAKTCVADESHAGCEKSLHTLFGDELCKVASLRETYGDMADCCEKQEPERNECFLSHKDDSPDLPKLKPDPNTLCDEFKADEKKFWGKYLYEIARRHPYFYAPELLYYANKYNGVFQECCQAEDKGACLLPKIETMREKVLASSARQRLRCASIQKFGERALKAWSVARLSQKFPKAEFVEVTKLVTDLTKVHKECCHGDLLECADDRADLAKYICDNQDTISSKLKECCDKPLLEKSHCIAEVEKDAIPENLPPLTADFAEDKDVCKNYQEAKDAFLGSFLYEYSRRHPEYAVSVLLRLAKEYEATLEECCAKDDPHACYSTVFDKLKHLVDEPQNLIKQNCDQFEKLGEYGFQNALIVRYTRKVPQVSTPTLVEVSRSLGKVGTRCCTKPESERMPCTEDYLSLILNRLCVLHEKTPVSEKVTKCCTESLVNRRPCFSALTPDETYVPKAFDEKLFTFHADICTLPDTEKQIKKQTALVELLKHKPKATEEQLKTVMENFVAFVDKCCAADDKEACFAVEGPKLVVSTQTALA

For the molecule TCACGTTTATCCGTCCCTCCTAGTGGCGTGA (ssDNA) [CaAp-1 IgE-binding aptamer], the binding result in series [1] is listed as “no binding”.

B1: structure-switching thrombin aptamer with inserted hairpin (22-46 nt) (ssDNA)
DNA: CACTGGTAGGTTGGTGTGGTTGGACGACGAATTCATGATCACGTCCTTGGGGCCAGTG
For B1, the binding result is “binds” with thrombin and “no binding” in series [2].
